Measured values published in US20070105771A1 (Y S THERAPEUTICS, published 2007).

What was measured:
Test in all cases: peptide microarray
[1] = target: T1, human CD26-derived 13 mer peptide 67 (human)
T1 construct: also called LPSYRITWTGKED
T1 peptide: LPSYRITWTGKED
Experimental: (§1) The overnight incubation was followed by three washings with each of PBS buffer pH 7.5 and water. The microarrays were then scanned using ArrayWorx-Microarray Scanner.
(§2) The SPOT recognition software package ArrayPro was used for data analysis. The mean of signal intensities from 3 identical subarrays on each microarray image was used for data evaluation.

[2] = target: T2, human CD26-derived 13 mer peptide 68 (human)
T2 peptide: SYRITWTGKEDII
Experimental: as §1, §2

[3] = target: T3, human CD26-derived 13 mer peptide 72 (human)
T3 peptide: KEDIIYNGITDWV
Experimental: as §1, §2

[4] = target: T4, human CD26-derived 13 mer peptide 75 (human)
T4 peptide: NGITDWVYEEEVF
Experimental: as §1, §2

[5] = target: T5, human CD26-derived 13 mer peptide 78 (human)
T5 construct: also called VYEEEVFSAYSAL
T5 peptide: VYEEEVFSAYSAL
Experimental: as §1, §2

[6] = target: T6, human CD26-derived 13 mer peptide 82 (human)
T6 peptide: AYSALWWSPNGTF
Experimental: as §1, §2

[7] = target: T7, human CD26-derived 13 mer peptide 83 (human)
T7 peptide: SALWWSPNGTFLA
Experimental: as §1, §2

[8] = target: T8, human CD26-derived 13 mer peptide 92 (human)
T8 peptide: DTEVPLIEYSFYS
Experimental: as §1, §2

[9] = target: T9, human CD26-derived 13 mer peptide 93 (human)
T9 peptide: EVPLIEYSFYSDE
Experimental: as §1, §2

[10] = target: T10, human CD26-derived 13 mer peptide 94 (human)
T10 peptide: PLIEYSFYSDESL
Experimental: as §1, §2

[11] = target: T11, human CD26-derived 13 mer peptide 95 (human)
T11 peptide: IEYSFYSDESLQY
Experimental: as §1, §2

[12] = target: T12, human CD26-derived 13 mer peptide 98 (human)
T12 peptide: SDESLQYPKTVRV
Experimental: as §1, §2

[13] = target: T13, human CD26-derived 13 mer peptide 104 (human)
T13 peptide: VPYPKAGAVNPTV
Experimental: as §1, §2

[14] = target: T14, human CD26-derived 13 mer peptide 106 (human)
T14 peptide: KAGAVNPTVKFFV
Experimental: as §1, §2

[15] = target: T15, human CD26-derived 13 mer peptide 110 (human)
T15 peptide: VKFFVVNTDSLSS
Experimental: as §1, §2

[16] = target: T16, human CD26-derived 13 mer peptide 112 (human)
T16 peptide: VVNTDSLSSVTNA
Experimental: as §1, §2

[17] = target: T17, human CD26-derived 13 mer peptide 117 (human)
T17 peptide: TNATSIQITAPAS
Experimental: as §1, §2

[18] = target: T18, human CD26-derived 13 mer peptide 118 (human)
T18 peptide: ATSIQITAPASML
Experimental: as §1, §2

[19] = target: T19, human CD26-derived 13 mer peptide 124 (human)
T19 peptide: LIGDHYLCDVTWA
Experimental: as §1, §2

[20] = target: T20, human CD26-derived 13 mer peptide 126 (human)
T20 peptide: HYLCDVTWATQER
Experimental: as §1, §2

[21] = target: T21, human CD26-derived 13 mer peptide 128 (human)
T21 peptide: DVTWATQERISLQ
Experimental: as §1, §2

[22] = target: T22, human CD26-derived 13 mer peptide 132 (human)
T22 peptide: RISLQWLRRIQNY
Experimental: as §1, §2

[23] = target: T23, human CD26-derived 13 mer peptide 3 (human)
T23 peptide: TYRLKLYSLRWIS
Experimental: as §1, §2

[24] = target: T24, human CD26-derived 13 mer peptide 4 (human)
T24 peptide: RLKLYSLRWISDH
Experimental: as §1, §2

[25] = target: T25, human CD26-derived 13 mer peptide 6 (human)
T25 peptide: YSLRWISDHEYLY
Experimental: as §1, §2

[26] = target: T26, human CD26-derived 13 mer peptide 9 (human)
T26 peptide: SDHEYLYKQENNI
Experimental: as §1, §2

[27] = target: T27, human CD26-derived 13 mer peptide 10 (human)
T27 peptide: HEYLYKQENNILV
Experimental: as §1, §2

[28] = target: T28, human CD26-derived 13 mer peptide 21 (human)
T28 peptide: VFLENSTFDEFGH
Experimental: as §1, §2

[29] = target: T29, human CD26-derived 13 mer peptide 22 (human)
T29 peptide: LENSTFDEFGHSI
Experimental: as §1, §2

[30] = target: T30, human CD26-derived 13 mer peptide 24 (human)
T30 peptide: TFDEFGHSINDYS
Experimental: as §1, §2

[31] = target: T31, human CD26-derived 13 mer peptide 25 (human)
T31 peptide: DEFGHSINDYSIS
Experimental: as §1, §2

[32] = target: T32, human CD26-derived 13 mer peptide 26 (human)
T32 peptide: FGHSINDYSISPD
Experimental: as §1, §2

[33] = target: T33, human CD26-derived 13 mer peptide 28 (human)
T33 peptide: INDYSISPDGQFI
Experimental: as §1, §2

[34] = target: T34, human CD26-derived 13 mer peptide 33 (human)
T34 peptide: QFILLEYNYVKQW
Experimental: as §1, §2

[35] = target: T35, human CD26-derived 13 mer peptide 38 (human)
T35 peptide: KQWRHSYTASYDI
Experimental: as §1, §2

[36] = target: T36, human CD26-derived 13 mer peptide 43 (human)
T36 peptide: YDIYDLNKRQLIT
Experimental: as §1, §2

[37] = target: T37, human CD26-derived 13 mer peptide 46 (human)
T37 construct: also called NKRQL1TEERIPN
T37 peptide: NKRQLITEERIPN
Experimental: as §1, §2

[38] = target: T38, human CD26-derived 13 mer peptide 53 (human)
T38 peptide: TQWVTWSPVGHKL
Experimental: as §1, §2

[39] = target: T39, human CD26-derived 13 mer peptide 58 (human)
T39 peptide: HKLAYVWNNDIYV
Experimental: as §1, §2

[40] = target: T40, human CD26-derived 13 mer peptide 59 (human)
T40 peptide: LAYVWNNDIYVKI
Experimental: as §1, §2

[41] = target: T41, human CD26-derived 13 mer peptide 62 (human)
T41 peptide: NDIYVKIEPNLPS
Experimental: as §1, §2

[42] = target: T42, human CD26-derived 13 mer peptide 63 (human)
T42 peptide: IYVKIEPNLPSYR
Experimental: as §1, §2

- Mean Signal Value [1]: 0.00962
- Mean Signal Value [2]: 0
- Mean Signal Value [3]: 10.1
- Mean Signal Value [4]: 9.38
- Mean Signal Value [5]: 7.86
- Mean Signal Value [6]: 67.8
- Mean Signal Value [7]: 3.64
- Mean Signal Value [8]: 11.9
- Mean Signal Value [9]: 0.269
- Mean Signal Value [10]: 0.0433
- Mean Signal Value [11]: 6.14
- Mean Signal Value [12]: 0.00481
- Mean Signal Value [13]: 0.00481
- Mean Signal Value [14]: 0.245
- Mean Signal Value [15]: 0.024
- Mean Signal Value [16]: 0
- Mean Signal Value [17]: 0.00962
- Mean Signal Value [18]: 0
- Mean Signal Value [19]: 12.7
- Mean Signal Value [20]: 0.0337
- Mean Signal Value [21]: 0.106
- Mean Signal Value [22]: 113
- Mean Signal Value [23]: 0.726
- Mean Signal Value [24]: 51.3
- Mean Signal Value [25]: 97.5
- Mean Signal Value [26]: 0.0673
- Mean Signal Value [27]: 0.0192
- Mean Signal Value [28]: 0.197
- Mean Signal Value [29]: 0.0192
- Mean Signal Value [30]: 0.00962
- Mean Signal Value [31]: 0
- Mean Signal Value [32]: 0.0337
- Mean Signal Value [33]: 0.221
- Mean Signal Value [34]: 21.8
- Mean Signal Value [35]: 4.77
- Mean Signal Value [36]: 0
- Mean Signal Value [37]: 0
- Mean Signal Value [38]: 0.00481
- Mean Signal Value [39]: 33.8
- Mean Signal Value [40]: 0.683
- Mean Signal Value [41]: 0.00481
- Mean Signal Value [42]: 8.12
B1: rhuMAb 411 (antibody, human IgG1, kappa, V domains shown)
VH: EVQLVESGAGVKQPGGTLRLTCTASGFSLTTYGVHWVRQAPGKGLEWVGVIWGDGRTDYDAAFMSRVTISKDTSKSTVYLQMNSLRAEDTAVYYCMRNRHDWFDYWGQGTTVTVSS
VL: DILLTQSPSSLSATPGERATITCRASQGIRNNLNWYQQKPGQAPRLLIYYSSNLQSGVPSRFSGSGSGTDFTLTISRLQPEDVAAYYCQQSIKLPFTFGSGTKVEIKR
notes: also called X411
